The values below come from US20250340667A1, “Cancer Treatment comprising an anti-MSLN/CD137 antibody and a chemotherapeutic” (Merck Patent GmbH, priority 2022, published 2025).

Positions count from the first letter of the chain named. “And” between values parts separate entries of the source, which are not always exact repeats. Identical values can stand only once. Like-named read-outs stand apart in the source and are kept apart here.

Data set [1] deals with CT26 colon cancer cells. The format is in vivo. Conditions: for tumor growth inhibition (TGI): relative to the isotype control; for median survival: isotype control 17 days; for complete tumor regression: number of mice with complete regression per group. The protocol:
(§1) The efficacy of the combination of an antibody molecule that binds MSLN and CD137 and a chemotherapeutic in enhancing an anti-cancer immune response compared to monotherapy with either the antibody molecule that binds MSLN and CD137 or the chemotherapeutic was assessed by studying the average tumour volume over time and prolonged survival in mouse tumour models. These mouse tumor models are described in more detail below.
(§2) CT26 cells were obtained from ATCC and cultured in RPMI media containing 2 mM L-glutamine, 10 mM HEPES, 1 mM sodium pyruvate, 4500 mg/L glucose, 1500 mg/L sodium bicarbonate, and 10% fetal bovine serum (FBS). JC cells were obtained from ATCC and were maintained in vitro as a monolayer culture at WuXi in RPMI-1640 supplemented with 10% heat-inactivated FBS. These tumor cell lines were individually maintained in vitro as monolayer cultures and grown at 37° C. in an atmosphere of 5% CO2. The cells were routinely sub-cultured twice weekly by TrypLE treatment. The cells growing in an exponential growth phase were harvested and counted for tumor inoculation. Wild-type BALB/c female mice were purchased from Charles River Laboratories, or from Lingchang Biological Technology Co. LTD. All mice were 8-12 weeks old at the start of studies and were housed and maintained as described below, under conditions that conform to The Guide for the Care and Use of Laboratory Animals, 8th Edition. All animal experiments were performed in accordance with EMD Serono Research Institutional (protocol 17-008, 20-005) and Wuxi AppTec Animal Care and Use Committee (IACUC) guidelines.
(§3) CT26 and JC tumor models were used to investigate the antitumor effect of a combination of an antibody molecule that binds MSLN and CD137 and a chemotherapeutic compared to monotherapy with the antibody molecule that binds MSLN and CD137 or the chemotherapeutic. Mice were treated with the anti-mMSLN-mCD137-huIgG1-LALA antibody molecule FS122m in combination with either of the two chemotherapeutics cisplatin or gemcitabine. For the CT26 model, female BALB/c mice were inoculated via subcutaneous (sc) injection in the right flank with 0.3×10^6 CT26 cells in 0.1 mL of PBS. Mice were randomized to treatment groups (n=10 mice/group) when the average tumor volume reached approximately 50-100 mm^3. For the JC model, female BALB/c mice were inoculated via sc injection at the right upper flank with JC tumor cells (5×10^6) in 0.1 mL of PBS. Treatments were started on day 14 after tumor inoculation when the average tumor size reached approximately 80 mm^3. FS122m and anti-HEL hIgG1 LALA isotype control were given as 5 mg/kg on the first, third and fifth day of treatment (Days 0, 2, and 4) via intraperitoneal (ip) injection. Cisplatin was given on Day 0 at 10 mg/kg via ip injection, and gemcitabine was given on Day 0 at 120 mg/kg via ip injection.
(§4) Mortality checks were performed once daily. Animals were checked daily for any effects of tumor growth and treatments on normal behavior such as mobility, food and water consumption (by looking only), eye/hair matting and any other abnormal effect as stated in the protocol. Body weights were recorded twice weekly and any mouse with a 20% loss of initial body weight loss was humanely sacrificed. Mice were humanely euthanized if their subcutaneous tumors reached a volume of 2500 mm^3.
(§5) Body weight was measured and recorded twice weekly until an endpoint was reached. Tumor sizes were measured twice per week in three dimensions using a caliper, and the volume was expressed in mm^3 using the formula: width×length×height×0.5236.
(§6) Differences in tumor growth between treatment groups were determined using two-way analysis of variance (ANOVA) and Tukey's Multiple Comparisons Test. The significance of survival was determined using Log-rank (Mantel-Cox) test. […]

The subject of data set [2] is JC breast cancer cells. The format is in vivo. Conditions: for tumor growth inhibition (TGI): FS122m 5 mg/kg ip Days 0, 2, 4; for complete tumor regression: number of mice with complete regression per group. As to the method:
as §1, §2, §3, §4, §5, §6

For data set [3], the target named is T1, CD137 (Homo sapiens, UniProt Q07011).
T1 construct: Clinical studies of both utomilumab and urelumab monotherapy were however suspended; host or cells: patients (endogenous CD137)
T1 sequence (Q07011 24-255): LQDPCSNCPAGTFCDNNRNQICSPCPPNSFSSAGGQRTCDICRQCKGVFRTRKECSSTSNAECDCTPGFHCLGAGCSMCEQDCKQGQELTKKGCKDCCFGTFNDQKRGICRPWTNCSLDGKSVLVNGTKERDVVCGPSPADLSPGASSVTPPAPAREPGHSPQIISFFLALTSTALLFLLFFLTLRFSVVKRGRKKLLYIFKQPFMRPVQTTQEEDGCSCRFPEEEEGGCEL
The following applies: monotherapy clinical studies, suspended; cited from earlier work.

Data set [4] has as its target T2, mouse MSLN (Mus musculus, UniProt Q61468).
T2 sequence (Q61468 36-600): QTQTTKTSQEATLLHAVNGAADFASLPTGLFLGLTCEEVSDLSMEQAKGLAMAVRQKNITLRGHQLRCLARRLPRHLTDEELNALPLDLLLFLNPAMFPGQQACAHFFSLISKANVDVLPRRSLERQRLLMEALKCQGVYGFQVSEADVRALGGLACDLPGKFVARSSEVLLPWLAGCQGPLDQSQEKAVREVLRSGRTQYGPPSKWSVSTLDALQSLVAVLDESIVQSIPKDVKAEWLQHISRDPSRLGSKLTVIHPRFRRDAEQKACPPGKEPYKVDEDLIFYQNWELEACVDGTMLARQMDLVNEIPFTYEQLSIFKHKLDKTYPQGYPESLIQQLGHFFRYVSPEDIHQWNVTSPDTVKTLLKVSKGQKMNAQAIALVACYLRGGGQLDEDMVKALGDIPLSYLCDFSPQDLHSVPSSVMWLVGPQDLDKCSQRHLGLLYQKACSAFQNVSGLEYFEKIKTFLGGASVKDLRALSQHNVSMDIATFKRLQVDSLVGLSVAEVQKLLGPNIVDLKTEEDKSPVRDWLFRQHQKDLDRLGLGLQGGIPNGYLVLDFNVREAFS
Put plainly: Binding / cross-reactivity to mouse MSLN.

Data set [5] has as its target mouse CD137 (Mus musculus, UniProt P20334). Put plainly: Binding / cross-reactivity to mouse CD137.
Setting [6] is: cisplatin combination study, Day 17, FS122m 5 mg/kg ip Days 0, 2, 4, cisplatin 10 mg/kg ip Day 0.
[7] abbreviates: cisplatin combination study, FS122m 5 mg/kg ip Days 0, 2, 4, cisplatin 10 mg/kg ip Day 0.
Where [8] appears, read: cisplatin combination study, Day 22 post treatment initiation, compared with the isotype control, cisplatin 10 mg/kg ip Day 0.
The mark [9] stands for this setting: cisplatin combination study, isotype control 22 days.
Setting [10] is: gemcitabine combination study, monotherapies Day 14, combination compared on Day 18, FS122m 5 mg/kg ip Days 0, 2, 4, gemcitabine 120 mg/kg ip Day 0.
[11] abbreviates: gemcitabine combination study, Day 25, relative to the isotype control, gemcitabine 120 mg/kg ip Day 0.
Where [12] appears, read: gemcitabine combination study, isotype control 27 days.

mouse CD137, sequence (P20334 24-256): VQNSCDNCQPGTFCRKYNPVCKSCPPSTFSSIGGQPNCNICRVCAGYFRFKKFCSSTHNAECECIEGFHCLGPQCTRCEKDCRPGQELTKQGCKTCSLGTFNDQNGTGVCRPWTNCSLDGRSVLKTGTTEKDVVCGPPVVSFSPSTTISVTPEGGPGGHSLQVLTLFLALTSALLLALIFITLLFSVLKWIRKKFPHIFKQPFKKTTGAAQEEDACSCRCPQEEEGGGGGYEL

For `N.N.[Cl][Pt][Cl]` [cisplatin], the “tumor growth inhibition (TGI)” value in data set [1] (setting [6]) is recorded as 77.8%; in data set [2] (setting [8]), 44.9%. Also, the values for the median survival in data set [1] (setting [7]) and in data set [2] (setting [9]) were 36.5 days and 29 days, respectively. The complete tumor regression entry in data set [1] (cisplatin combination study) was “no complete tumor regression in 10 mice”; in data set [1] (gemcitabine combination study), “no complete tumor regression in 9 mice”; in data set [2] (cisplatin combination study), “no complete tumor regression in 10 mice”; in data set [2] (gemcitabine combination study), “no complete tumor regression in 10 mice”.

On to `Nc1ccn([C@@H]2O[C@H](CO)[C@@H](O)C2(F)F)c(=O)n1` [gemcitabine], for which the median survival in data set [1] (gemcitabine combination study) is reported as 22 days; in data set [2] (setting [12]), 36 days. Also, the complete tumor regression entry in data set [1] (gemcitabine combination study) was “no complete tumor regression in any of 9 mice”; in data set [2] (gemcitabine combination study) it was “no complete tumor regression in 10 mice”. Moreover, the “tumor growth inhibition (TGI)” value in data set [1] (setting [10]) worked out at 58.2%; in data set [2] (setting [11]), 47.8%.

“urelumab: 1st generation CD137 agonist antibody”: in data set [3], the clinical toxicity result is on record as “hepatotoxicity”.

B1: FS122m: mouse surrogate mAb2 of M9657 binding mouse MSLN and murine CD137, human IgG1 LALA; SEQ ID NOs 84 and 85 (antibody)
heavy: EVQLLESGGGLVQPGGSLRLSCAASGFTFSTYFMVWVRQAPGKGLEWVSMISPKSSNTYYADSVKGRFTISRDNSKNTLYLQMNSLRAEDTAVYYCARYHISPRFDYWGQGTLVTVSSASTKGPSVFPLAPSSKSTSGGTAALGCLVKDYFPEPVTVSWNSGALTSGVHTFPAVLQSSGLYSLSSVVTVPSSSLGTQTYICNVNHKPSNTKVDKKVEPKSCDKTHTCPPCPAPEAAGGPSVFLFPPKPKDTLMISRTPEVTCVVVDVSHEDPEVKFNWYVDGVEVHNAKTKPREEQYNSTYRVVSVLTVLHQDWLNGKEYKCKVSNKALPAPIEKTISKAKGQPREPQVYTLPPSRDEPYWSYVSLTCLVKGFYPSDIAVEWESNGQPENNYKTTPPVLDSDGSFFLYSKLTVMNYRWELGNVFSCSVMHEALHNHYTQKSLSLSPGK
light: EIVLTQSPGTLSLSPGERATLSCRASQSVSSSYLAWYQQKPGQAPRLLIYGASSRATGIPDRFSGSGSGTDFTLTISRLEPEDFAVYYCQQPFPFSFTFGQGTKVEIKRTVAAPSVFIFPPSDEQLKSGTASVVCLLNNFYPREAKVQWKVDNALQSGNSQESVTEQDSKDSTYSLSSTLTLSKADYEKHKVYACEVTHQGLSSPVTKSFNRGEC
modifications: FS122m (surrogate anti-mMSLN mCD137 Fcab G1-AA): Heavy chain AA (with LALA); Light chain AA
As for B1, the “tumor growth inhibition (TGI)” value in data set [1] (setting [6]) turned out to be 61.3%; in data set [1] (setting [10]), 61.4%; in data set [2] (setting [8]) it was 60.1%; in data set [2] (setting [11]) it was 45.8%. Further, the median survival in data set [1] (setting [7]) is given as 24 days; in data set [1] (gemcitabine combination study) it was 35 days; in data set [2] (setting [9]) it was 33 days; in data set [2] (setting [12]) it was 34 days. The complete tumor regression in data set [1] (cisplatin combination study) is 2 of 10 and 2 out of 10; in data set [1] (gemcitabine combination study) it was 3 of 9; in data set [2] (cisplatin combination study), 2 of 10; in data set [2] (gemcitabine combination study), 1 of 10 and 1 out of 10. The “binding affinity for mouse MSLN” value in data set [4] (compared with binding affinity of M9657 for human MSLN) is listed as “similar”. The “binding affinity for mouse CD137” value in data set [5] (compared with binding affinity of M9657 for human CD137) was “similar”.

B2: M9657: tetravalent bispecific mAb2, Fab binds MSLN, CH3 Fcab binds CD137, human IgG1-LALA; heavy/light chain SEQ ID NOs 2 and 10 (antibody)
heavy: EVQLLESGGGLVQPGGSLRLSCAASGFTFTHTYMSWVRQAPGKGLEWVSAISPTYSTTNYADSVKGRFTISRDNNKNTLYLQMNSLRAEDTAVYYCARYNAYHAALDYWGQGTLVTVSSASTKGPSVFPLAPSSKSTSGGTAALGCLVKDYFPEPVTVSWNSGALTSGVHTFPAVLQSSGLYSLSSVVTVPSSSLGTQTYICNVNHKPSNTKVDKKVEPKSCDKTHTCPPCPAPEAAGGPSVFLFPPKPKDTLMISRTPEVTCVVVDVSHEDPEVKFNWYVDGVEVHNAKTKPREEQYNSTYRVVSVLTVLHQDWLNGKEYKCKVSNKALPAPIEKTISKAKGQPREPQVYTLPPSRDELPYIIPPYNQVSLTCLVKGFYPSDIAVEWESNGQPENNYKTTPPVLDSDGSFFLYSKLTVGADRWLEGNVFSCSVMHEALHNHYTQKSLSLSPG
light: B1 light with P92T, F93V, F95Y, S96P, F97Y
modifications: Heavy chain AA (with LALA); Light chain AA
In the case of B2, in data set [4], the “cross-reactivity with mouse MSLN” value was “lack of cross-reactivity”. Besides, the “cross-reactivity with mouse CD137” value in data set [5] is given as “lack of cross-reactivity”.
